Measurements published in patent US20210347873A1 (SHANGHAI PHARMAEXPLORER, published 2021).

T1: cynomolgus BLyS (full length, arginine to histidine at position 132) on CHO-K1 cells (cynomolgus, UniProt Q9Y275 1-285 (human entry))
T1 construct: also called cyno BLyS; CHO-K1 cynoBLyS
T1 chain: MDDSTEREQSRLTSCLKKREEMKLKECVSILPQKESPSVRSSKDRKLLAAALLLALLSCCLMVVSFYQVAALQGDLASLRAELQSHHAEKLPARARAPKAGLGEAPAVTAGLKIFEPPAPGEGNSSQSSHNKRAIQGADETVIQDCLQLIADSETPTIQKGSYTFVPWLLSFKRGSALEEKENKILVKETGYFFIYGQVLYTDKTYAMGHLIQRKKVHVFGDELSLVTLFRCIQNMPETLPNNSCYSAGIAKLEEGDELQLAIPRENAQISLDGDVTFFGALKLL

B1: 93C6F10D3 (antibody, V domains shown)
VH: EVQLVESGGGLVTPGGSLKLSCVASGFAFSTYGMSWVRQTPERRLEWVAYISGGGGSIYYPDSVKGRFTISRDNAKNILYLQMSSLKSEDTAMYHCTRHPDLLLRYDYALDHWGQGTSVTVSS
VL: DIQMTQSPASLSASVGETVTITCRASENIHIYLAWYQQKQGKSPQLLVYNGKTLADGVPSRFSGSGSGTQYSLKINTLQPEDFGNYYCQHFWNSTWTFGGGTKLEIK
notes: Mouse hybridoma monoclonal antibody purified on Protein G
B2: 89A2G5E7 (antibody, V domains shown)
VH: QVQLKESGPGLVAPSQSLSITCTVSGLSLNSHDISWIRQPPGKGLEWLGVIWSGGGTKYNSAFMSRLSISKDNSKSQVFLKMNSLHTDDTAIYYCVRTPSMITYSAMDYWGQGTSVTVSS
VL: EIVLTQSPALMAASPGEKVTITCSVSSSISSRNLHWYQQKSQTSPKAWIHATSNLASGVPVRFSGSGSGTSYSLTISSMEAEDAATYYCQQWSSYPLTFGSGTKLEIK
notes: as for B1
B3: 97E7B3F2 (antibody, V domains shown)
VH: EVQLQQSGPELVKSGASVKISCKASGYTFTDHKMHWVKQSHGKSLEWIGYISPYNGGTGYNQKFKSKVTLTVDISSSTAYMELRSLTSEDSAVYYCARWGFYDVMDSWGQGTSVTVSS
VL: DVLLTQTPLSLPVSLGDQASISCRSSQTIVHIIGDTYLEWYLQKPGQSPKLLIYKVSNRFSGVPDRFSGSGAGTDFTLKISRVEAEDLGVYYCFQGSHVPRTFGGGTKLEIK
notes: as for B1

Target: T2, human BLyS (full length, arginine to histidine at position 132) on CHO-K1 cells (human, UniProt Q9Y275 1-285)
T2 construct: also called hBLyS; CHO-K1 hBLyS
Experiment: flow cytometry, CHO-K1 hBLyS cells, antibody 0 nM
Protocol: (§1) The medium was aspirated completely, and the cells were rinsed once with PBS buffer (purchased from Invitrogen) and then treated with cell dispersion solution (TrypLE™ Express Enzyme, purchased from Life technology) and collected. The detailed steps are as follows: the cells were rinsed once with PBS buffer, after counting, the cells were diluted to 2×10⁶ cells/ml with PBS buffer, blocked with 2% (w/w) fetal bovine serum and incubated on ice for 30 minutes. 200 μL of which per well was aliquoted into a 96-well FACS plate and centrifuged at 2000 rpm at 4° C., then each 100 μL of the lead antibodies obtained from Embodiment 1 and 2 were aliquoted into each well and incubated on ice for 1 hour. […] After centrifuged and rinsed 3 times with FACS buffer, cells were suspended with 200 μL of FACS buffer and the results were detected and analyzed by FACS (FACS Calibur, purchased from BD). It was shown in Tables 12-13 that the lead antibody could bind to human BLyS protein on the cell surface and the lead antibody could cross-react with cynomolgus BLyS. The data in the table is MFI, the average fluorescence intensity of the cell population.

Row | MFI | Binder
1 | 31.6 MFI | B1
2 | 31 MFI | B2
3 | 32.4 MFI | B3

Target: T1, cynomolgus BLyS (full length, arginine …)
Experiment: flow cytometry, CHO-K1 cynoBLyS cells, antibody 0.534 nM
Protocol: as §1

Row | MFI | Binder
4 | 706 MFI | B1
5 | 355 MFI | B2
6 | 688 MFI | B3

Target: T1, cynomolgus BLyS (full length, arginine …)
Experiment: flow cytometry, CHO-K1 cynoBLyS cells, antibody 0.107 nM
Protocol: as §1

Row | MFI | Binder
7 | 308 MFI | B1
8 | 125 MFI | B2
9 | 288 MFI | B3

Target: T1, cynomolgus BLyS (full length, arginine …)
Experiment: flow cytometry, CHO-K1 cynoBLyS cells, antibody 13.3 nM
Protocol: as §1

Row | MFI | Binder
10 | 714 MFI | B1
11 | 829 MFI | B2
12 | 710 MFI | B3

Target: T2, human BLyS (full length, arginine to …)
Experiment: flow cytometry, CHO-K1 hBLyS cells, antibody 66.7 nM
Protocol: as §1

Row | MFI | Binder
13 | 392 MFI | B1
14 | 431 MFI | B2
15 | 406 MFI | B3

Target: T1, cynomolgus BLyS (full length, arginine …)
Experiment: flow cytometry, CHO-K1 cynoBLyS cells, antibody 0.0213 nM
Protocol: as §1

Row | MFI | Binder
16 | 112 MFI | B1
17 | 53.6 MFI | B2
18 | 112 MFI | B3

Target: T1, cynomolgus BLyS (full length, arginine …)
Experiment: flow cytometry, CHO-K1 cynoBLyS cells, antibody 2.67 nM
Protocol: as §1

Row | MFI | Binder
19 | 729 MFI | B1
20 | 726 MFI | B2
21 | 705 MFI | B3

Target: T2, human BLyS (full length, arginine to …)
Experiment: flow cytometry, CHO-K1 hBLyS cells, antibody 0.0213 nM
Protocol: as §1

Row | MFI | Binder
22 | 76.6 MFI | B1
23 | 48.1 MFI | B2
24 | 78.7 MFI | B3

Target: T2, human BLyS (full length, arginine to …)
Experiment: flow cytometry, CHO-K1 hBLyS cells, antibody 2.67 nM
Protocol: as §1

Row | MFI | Binder
25 | 317 MFI | B1
26 | 374 MFI | B2
27 | 332 MFI | B3

Target: T1, cynomolgus BLyS (full length, arginine …)
Experiment: flow cytometry, CHO-K1 cynoBLyS cells, antibody 0.00427 nM
Protocol: as §1

Row | MFI | Binder
28 | 46.9 MFI | B1
29 | 32.1 MFI | B2
30 | 53 MFI | B3

Target: T2, human BLyS (full length, arginine to …)
Experiment: flow cytometry, CHO-K1 hBLyS cells, antibody 0.107 nM
Protocol: as §1

Row | MFI | Binder
31 | 175 MFI | B1
32 | 92.1 MFI | B2
33 | 174 MFI | B3

Target: T2, human BLyS (full length, arginine to …)
Experiment: flow cytometry, CHO-K1 hBLyS cells, antibody 0.534 nM
Protocol: as §1

Row | MFI | Binder
34 | 306 MFI | B1
35 | 192 MFI | B2
36 | 318 MFI | B3

Target: T1, cynomolgus BLyS (full length, arginine …)
Experiment: flow cytometry, CHO-K1 cynoBLyS cells, antibody 0 nM
Protocol: as §1

Row | MFI | Binder
37 | 21.9 MFI | B1
38 | 21.2 MFI | B2
39 | 22.8 MFI | B3

Target: T1, cynomolgus BLyS (full length, arginine …)
Experiment: flow cytometry, CHO-K1 cynoBLyS cells, antibody 66.7 nM
Protocol: as §1

Row | MFI | Binder
40 | 785 MFI | B1
41 | 884 MFI | B2
42 | 770 MFI | B3

Target: T2, human BLyS (full length, arginine to …)
Experiment: flow cytometry, CHO-K1 hBLyS cells, antibody 0.00427 nM
Protocol: as §1

Row | MFI | Binder
43 | 44.9 MFI | B1
44 | 37 MFI | B2
45 | 48.2 MFI | B3

Target: T2, human BLyS (full length, arginine to …)
Experiment: flow cytometry, CHO-K1 hBLyS cells, antibody 13.3 nM
Protocol: as §1

Row | MFI | Binder
46 | 327 MFI | B1
47 | 406 MFI | B2
48 | 349 MFI | B3

Target: mouse BLyS protein (mouse, UniProt Q9WU72 69-309)
Experiment: cell-based or functional assay

mouse BLyS protein, sequence (Q9WU72 69-309): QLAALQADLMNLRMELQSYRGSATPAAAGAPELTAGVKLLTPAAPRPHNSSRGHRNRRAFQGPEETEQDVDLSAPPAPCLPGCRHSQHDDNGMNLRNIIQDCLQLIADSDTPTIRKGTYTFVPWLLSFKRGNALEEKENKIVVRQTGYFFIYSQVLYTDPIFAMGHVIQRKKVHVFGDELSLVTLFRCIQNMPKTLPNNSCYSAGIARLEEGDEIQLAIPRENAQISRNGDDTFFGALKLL

Row | mouse B lymphocyte proliferation (OD450 nm), antibody 0 nM | mouse B lymphocyte proliferation (OD450 nm), antibody 0.000256 nM | mouse B lymphocyte proliferation (OD450 nm), antibody 0.00128 nM | mouse B lymphocyte proliferation (OD450 nm), antibody 0.0064 nM | mouse B lymphocyte proliferation (OD450 nm), antibody 0.032 nM | mouse B lymphocyte proliferation (OD450 nm), antibody 0.16 nM | mouse B lymphocyte proliferation (OD450 nm), antibody 0.8 nM | mouse B lymphocyte proliferation (OD450 nm), antibody 4 nM | mouse B lymphocyte proliferation (OD450 nm), antibody 20 nM | mouse B lymphocyte proliferation (OD450 nm), antibody 100 nM | Binder
49 | 2310 OD450 nm | 2310 OD450 nm | 2290 OD450 nm | 2510 OD450 nm | 2540 OD450 nm | 2540 OD450 nm | 2530 OD450 nm | 2640 OD450 nm | 2620 OD450 nm | 2740 OD450 nm | B1
50 | 2090 OD450 nm | 2170 OD450 nm | 2270 OD450 nm | 2170 OD450 nm | 2390 OD450 nm | 2370 OD450 nm | 2640 OD450 nm | 2480 OD450 nm | 2640 OD450 nm | 2480 OD450 nm | B2
51 | 2130 OD450 nm | 2200 OD450 nm | 2150 OD450 nm | 2310 OD450 nm | 2580 OD450 nm | 2360 OD450 nm | 2310 OD450 nm | 2410 OD450 nm | 2290 OD450 nm | 2310 OD450 nm | B3

Target: hBLyS-ECD (His-tagged extracellular domain of human BLyS protein, Ala134-Leu285) (human, UniProt Q9Y275 134-285)
Experiment: cell-based or functional assay

Row | mouse B lymphocyte proliferation (OD450 nm), antibody 0 nM | mouse B lymphocyte proliferation (OD450 nm), antibody 0.000256 nM | mouse B lymphocyte proliferation (OD450 nm), antibody 0.00128 nM | mouse B lymphocyte proliferation (OD450 nm), antibody 0.0064 nM | mouse B lymphocyte proliferation (OD450 nm), antibody 0.032 nM | mouse B lymphocyte proliferation (OD450 nm), antibody 0.16 nM | mouse B lymphocyte proliferation (OD450 nm), antibody 0.8 nM | mouse B lymphocyte proliferation (OD450 nm), antibody 4 nM | mouse B lymphocyte proliferation (OD450 nm), antibody 20 nM | mouse B lymphocyte proliferation (OD450 nm), antibody 100 nM | Binder
52 | 3030 OD450 nm | 3420 OD450 nm | 3550 OD450 nm | 4050 OD450 nm | 4360 OD450 nm | 3530 OD450 nm | 799 OD450 nm | 514 OD450 nm | 466 OD450 nm | 416 OD450 nm | B1
53 | 3440 OD450 nm | 3120 OD450 nm | 3700 OD450 nm | 3700 OD450 nm | 3360 OD450 nm | 3270 OD450 nm | 530 OD450 nm | 431 OD450 nm | 433 OD450 nm | 414 OD450 nm | B2
54 | 2960 OD450 nm | 3380 OD450 nm | 3760 OD450 nm | 3770 OD450 nm | 2940 OD450 nm | 2990 OD450 nm | 438 OD450 nm | 364 OD450 nm | 383 OD450 nm | 377 OD450 nm | B3
